Experimental data: paper PMC7867571

Target: H. influenzae VapXD2 heterotrimer (VapD homodimer with one VapX) (Haemophilus influenzae (non-typeable, strain 86-028NP)) (UniProt P71351)
Assay: crystal structure

Question: How did the stoichiometry N turn out when “H. influenzae VapXD2 heterotrimer (VapD homodimer with one VapX) (from UniProt P71351 1-91; Q4QN94 1-63) (complex)” was run?
Answer: 3
